# Test: soluble on expression in E. coli; label from the status in PepcDB or PDB records
row,Sequence,soluble on expression in E. coli
1,MVAVKGLSEREVVADTVIWPIQFTVADNQLSSLFATVDQQTQLITQFLVEKGVDRAAISLSAPAVIDKKAQQYGEDRAEFRYLATQTLTVYSKQVDQVRKIISEIGQLGKQGVVFNQDPYNNRVEFSFTGLNAIKPDMIEEATKQAREVAQKFAKDSQSTLGKIKTASQGQFSITDRDNNTPYIKNVRVVTTVEYYLSDLEHHHHHH,not soluble
2,MVAYSPIIATYGNRAEQFLETDSDFAKYHAKLNKKLQHLRSRCHLVTKDTKKYSSKNKYGEINSEDYDNKTKLIGVLILLHAERDLALAETLKLRARQRGKLKKSEEKVLSTRLKKACKTADKLVNVTQNEQQWITRAQYLAFAKLVHSEYLINGKRFKRKDNAKISNNLALVFAALEHLKNLSLLAEEVVDNIVNKYQYSLKQYAGNLITTPEINNFIVERVQSDENKDDELVKLLLDNGFNMKKITTSTEDQKVTTNINWRSFNAKIIDAEVAQFLEQGLSIHPTQITQYTQRLSKLEKALDRHEFFIANHDDQDDIDEMVENSSENNQIILAYIKYNILLTSISRERDLFTHLWNQWLKLNTSLPSKLTKYKEMERIVKNLTKYLSDIMELPGVYSDDELLSQLDLCKLYFQLFLNTGCLSVLYQSKGRYMEALALYVDAYRRLENKLSEIESLDEILLPANLLSLNSVRSLQKRIENGGNSVITLAEYEKRNHGGSLGKYDLTVIEKLDSKKILPTDIQLKNLFPLKPKMLPIPSKPTLFDLAFNYITYDKQEPSASQVKDSVTETESISQTPISNEQTEGEPKKKRGFLGLFGR,not soluble
3,MVDFKMTKEGLVLLIKDYQNLEEVLNAISARITQMGGFFAKGDRISLMIENHNKHSQDIPRIVSHLRNLGLEVSQILVGSTVEGKENDLKVQSRTTVESTGKVIKRNIRSGQTVVHSGDVIVFGNVNKGAEILAGGSVVVFGKAQGNIRAGLNEGGQAVVAALDLQTSLIQIAGFITHSKGEENVPSIAHVKGNRIVIEPFDKVSFERSE,soluble
4,MVDSKKRPGKDLDRIDRNILNELQKDGRISNVELSKRVGLSPTPCLERVRRLERQGFIQGYTALLNPHYLDASLLVFVEITLNRGAPDVFEQFNAAVQKLEEIQECHLVSGDFDYLLKTRVPDMSAYRKLLGETLLRLPGVNDTRTYVVMEEVKQSNRLVIKTR,not soluble
5,MVEFSKESSTRVSVNSQRQISHVQKRELTKRKSVRFETQTVESTSEFVGKTNQEWTFVADCFNLDKETRSEREQELLSLCNFFDSNEKELELSDASDESDDSVPFELFAEQGMRIAWTQIVTSPSLSNLRLASILRFDTKKKIVSPFIEDEKSPQEFFLDDNEAVENAFKGVLPCTNSQKVSRSRRASKSEEENDFVTAKGSDFWSDVEF,not soluble
6,MVEINNQRKAFLDMLAWSEGTDNGRQKTRNHGYDVIVGGELFTDYSDHPRKLVTLNPKLKSTGAGRYQLLSRWWDAYRKQLGLKDFSPKSQDAVALQQIKERGALPMIDRGDIRQAIDRCSNIWASLPGAGYGQFEHKADSLIAKFKEAGGTVREIDV,soluble
7,MVEKEIDYLCSQYGLKPTNLSKFTLKLNFPDPDLKYGFSGEDNSLYLPLYHELNVSSSLPGEMFCMVYIQLILDPDKVNSEYLADFFNNPLGLKIRKGWEARGFVLRPETRNSEEVQESQQTSALNNPALLSGKSGFSGISYPVTGETSSENGDSIYSICQGSDGMTYVLPDSASPVPEILSFPDLDLESLMHSKLYLPDLQVQLEILKIKALTKELISQLNIFECRLSTYPKSMSHIRRKLELIREAVKLANDSDYILELIRRGESKRLEFKSTLRMNLMTGKPDWNIQHAVLKTIVAYLNTDGGILLVGVSNDGEILGIKNDGFPNEDRFLLHFKQLIKQHIGLNYSPMIEYTLVPVNGKEVLEIACKKSDEAVFLKTDKNDEEFYIRTGPSSERLTGSKLIEYVNRRYNGKSDAAALEHHHHHH,soluble
8,MVEKMNEEVMDSKELQVGDVVTGSVTKVEEKQVLVNVGYKTDGVIPISELANVHIEKASDVVELDQTLELKIIKLEEDDLVLSKRAVDAEKAWVELQEKFTSGHVFDVIVKDIVNGGLVVDLGVRGFIPASLVEVHYVEDFTDYKGKTLAVKIVELDREKNRVILSHKAVVELELDSKKKEAISSLKEGDVVEGTVQRLTDFGAFVNVGGVDGLVHISQISHERVEQPSEVLEQGQKVKVKVLSVDADTQRISLSIKAAQPGPWENVAGEIKAGDIREGVVKRLVTFGAFVEILPGVEGLVHVSQIANRHVKNPNEVLEMGQEVKVKVLEVHVAEKRISLSIKEALEENNVTEDYSQYEPNADSATFQLSDIIGEQLKKLKKLEHHHHHH,soluble
9,MVEKPVVIKFGGTSVRYAFEEALELVAKLHENMKIIVVVSALAGVTDCLLRLAKGDKSALLEIDEIHEELSQELNVQLEHLIHQLKKTINSKSSFPSEKAFIDEIASFGERFSAKLFSEGLKILGITARPVDSKDVLFVKGEFGNAEVEFKKSAQGVDVLYRMLRRGIVPVVTGYYGNLNGFRATFGRGGSDYSATSIASLVNAKAVLIMSDVEGIYTADPKLVPPARLIHYISYKEAKTAAKLGMKVLHPRAIDPVEGKIPVILGKTRDLKFGTLISHESQGIPIVTHKLLENHAEISVVSVKTNIPLPYEVYEEGDLYFKIKTSKDQFLEVLRDVHRRVVENENLHSSHDGELWTWVLEHHHHHH,not soluble
10,MVEMAATGYPVLILKEGTQRTYGREALRANILAARVLAEMLKSSLGPRGLDKMLVDAFGDITVTNDGATIVKEMEIQHPAAKLLVEVAKAQDAEVGDGTTSVVVLAGALLEKAEKLLDENLHPTIIIEGYTKAMEEALRLVDEAAVPVEVEDDSVLRRIAETTLASKFVGTGPERDKIISMVIDAIRTVAEKRPDGGYEVDLDYVKIEKKKGGSLLDSKLVRGIVLDKEVVHPAMPKRVENAKILVLDAPLEVQKPELTTKIRVTDIEKLESFLEEETRMLRDMVEKIAATGANVVITQKGIDEVAQHFLAKKGILAVRRVKRSDIEKVAKATGAKIVTSLRDLKPEYLGYAELVEERKVGEDKMVFIEGAKNPKSVTILLRGANDMLLDEAERNIKDALHGLRNILREPKIVGGGGAVEVELALKLKEFARTVGGKQQLAIEAYAEALETIPTVLAESAGMDALEALLKLRSLHSQGYKFAGVNVLEGKIEEDMTKINVYEPVLVKKQVIKSASEAAISILKIDDVIAAAPPKKKEKKGKTGEEEEEEGGGSKFEF,soluble
11,MVEQIKDKLGRPIRDLRLSVTDRCNFRCDYCMPKEVFGDDFVFLPKNELLTFDEMARIAKVYAELGVKKIRITGGEPLMRRDLDVLIAKLNQIDGIEDIGLTTNGLLLKKHGQKLYDAGLRRINVSLDAIDDTLFQSINNRNIKATTILEQIDYATSIGLNVKVNVVIQKGINDDQIIPMLEYFKDKHIEIRFIEFMDVGNDNGWDFSKVVTKDEMLTMIEQHFEIDPVEPKYFGEVAKYYRHKDNGVQFGLITSVSQSFCSTCTRARLSSDGKFYGCLFATVDGFNVKAFIRSGVTDEELKEQFKALWQIRDDRYSDERTAQTVANRQRKKINMNYIGG,soluble
12,MVERIEDLNLPNAVIGRLIKEALPESASVSKEARAAIARAASVFAIFVTSSSTALAHKQNHKTITAKDILQTLTELDFESFVPSLTQDLEVYRKVVKEKKESKASKKDSNTAENANASATATAEEAPE,soluble
13,MVESLKHTAAAAIAKLIHNGHFNSKSYAFDQESSNEVYAQLLRLDPQWSYNIDLKLKGLSFILTKVNFENVEMGPQTFGLLTQHNLKSLVLGNQDEIPSLEHYMSRLFRTSQIDHLDLSGRSQFSTAWLKTTGQQLPLLRTLNVSGVKLLNPDFFQFCKSFPNLYSLDISNCGVTILTGISRLKNLRHLSLRSLIYESWYDIRELFALKLLNVLDLSMHSTHHARRNMQRFLDCKQVLPELRFLECSGNLMDEDMLEELLITHSHLHQLAIVDCDVKAPKSSPIRILSCTTFDSSITALKYYLNLKRRNEVQICFQELRLHVKRLHERKMQYDVTECVTLSLQSLEKLPCSLIMNFDIVEERLFTSRLSFEADFLAEIVLHNFHRLSRVHTRLICDILLNNVNRQLIRDLRAETMWNAIIYLFNMGVFVDKQKLKGIASHCAASLHNGDPIIEEQAMRILTSCVTGKTLELVLSITESKHDTTPICLGFLRAALHKEDEQSSRRVAEKILAATHNNEEECKRYIKHGAMNMLISAIDRFDSEPMHIVILGIIRNLVMMSPYDKVQQIFTCVQFRTFQILLRNWTSSDRAYLMLSIFALRLNHQDKNFECVFRKCADELLRKHFPYLLATEITVDVDIYFDRGIVQNILRTSEEVGLVLWALLTIKIYAQKSLWNSRSIRDSNFFYLIENPHIASEVVNVASENVRFLFHW,not soluble
14,MVEVHACSPGCRHHLGGAGWGDAPLVRLGYNKEARAKKFPYLKALLERPLVFDGAMGTELQKRDLTPEDYGGEAYFGCPEVLNRTRPEVVREIHLAYLEAGAEVIETNTFGALRHVLAEYGLEEAAEELAFLGARIAREAADPHGAFVAGALGPGTKLVSLGQISWDALYRAYKEAARGLLKGGVDLILLETAQDILQVRCAVLAVREAMAEVGREVPLQVQVTFEATGTMLVGTDEQAALAALESLPVDVVGMNCATGPDLMDSKVRYFAEHSTRFVSCLPNAGLPRNEGGRVVYDLTPEELAKWHLKFVAEYGVNAVGGCCGTGPEHIRKVAEAVKGLAPKPRPESFPPQVASLYQAVSLKQEASLFLVGERLNATGSKRFREMLFARDLEGILALAREQVEEGAHALDLSVAWTGRDELEDLRWLLPHLATALTVPVMVDSTSPEAMELALKYLPGRVLLNSANLEDGLERFDRVASLAKAHGAALVVLAIDEKGMAKTREEKVRVALRMYERLTEHHGLRPEDLLFDLLTFPITQGDEESRPLAKETLLAMEELRERLPGVGFVLGVSNVSFGLKPRARRVLNSVFLDEARKRGLTAAIVDAGKILPISQIPEEAYALALDLIYDRRKEGFDPLLAFMAYFEAHKEDPGKREDAFLALPLLERLKRRVVEGRKQGLEADLEEALKAGHKPLDLINGPLLAGMKEVGDLFGAGKMQLPFVLQAAEVMKRAVAYLEPHMEKKGEGKGTLVLATVKGDVHDIGKNLVDIILSNNGYRVVNLGIKVPIEEILKAVEAHKPHAVGMSGLLVKSTLVMKENLEYMRDRGYTLPVILGGAALTRSYVEELRAIYPNVYYAEDAFEGLRLMEELTGHAPPELTRKAPARPKREAPKVAPRARPVGEAPAVPRPPFFGVRVEEGLDLATIAHYVNKLALYRGQWGYSRKGLSREAWQALVEREAEPVFQRLLKEAMAEGWLEPKVLYGFFPVAREGEELLVFSPETGEVLERFRFPRQKGGGLSLVDYFRPRFAAPLGDEADWMPKEAFRAGARDVLGVQLVTMGEAPSRKAQALFASGAYQDYLFVHGFSVEMTEALAEYWHKRMRQMWGIAHQDATEIQKLFQQGYQGARYSFGYPACPDLADQAKLDRLMGFHRVGVRLTENFQLEPEHATSALVVHHPEARYFSVD,soluble
15,MVFKMMYSEAILDYANSKKFRGKLDDATVIEEGKNISCGDEITLYLKVEDGVVKDAKFEGMGCVISQASASLMLERIIGERVEEIFSLIEEAEKMSRGENFDEGKLKNVTLMSDIKNYPARVKCFILAWKTLKEALKKISRP,soluble
16,MVFSGPASPGLTLAPLRRGGIDPCYRVDAAGAIWRTSLMPSGPVTARITRAATDAADCQAWGEGADEFIDRLPALLGVDDDASDFAPAEPTIAKARRQVPHLRLGRTGRMLEALIPAIIEQRVYGLDAWRAWRALVTKFGTPAPGPAPDGMRVVPSAEVWRRIPSWEFHRANVDPGRARTIVMCAQRADSLERLTHERAAVTLRSLPGVGEWTAAETMQRVFGDADALSAGDYHLATLVGQALTGEPVDDAGMVELLEPMRPHRHRAVRLLEASGMFVYRRRGARQAIPKLRTL,not soluble
17,MVGLLVEDTIDDQGWNRKAYEGLLNIHSNLDVDVVLEEGVNSEQKAHRRIKELVDGGVNLIFGHGHAFAEYFSTIHNQYPDVHFVSFNGEVKGENITSLHFEGYAMGYFGGMVAASMSETHKVGVIAAFPWQPEVEGFVDGAKYMNESEAFVRYVGEWTDADKALELFQELQKEQVDVFYPAGDGYHVPVVEAIKDQGDFAIGYVGDQADLGGSTILTSTVQHVDDLYVLVAKRFQEGKLESGNLYYDFQDGVVSLGEFSSVVPDEVREQITDAISTYIQTGQFPHEEER,soluble

# Reference: the DeepSol protein solubility set
